According to PMC6280682, “The Micronemal Plasmodium Proteins P36 and P52 Act in Concert to Establish the Replication-Permissive Compartment Within Infected Hepatocytes” (Frontiers in Cellular and Infection Microbiology, 2018):

Molecular target: T1, Plasmodium yoelii P36 with a C-terminal mCherry tag (P36^mCherry) (Plasmodium yoelii, UniProt Q7RPW4 25-310)
T1 construct: P36, Plasmodium yoelii 17X, 6-cys s48/45 family, two s48/45 domains; predicted MW with mCherry 66 kDa; also called Py P36^mCherry; not shown: mCherry, C-terminal, kept
T1 sequence: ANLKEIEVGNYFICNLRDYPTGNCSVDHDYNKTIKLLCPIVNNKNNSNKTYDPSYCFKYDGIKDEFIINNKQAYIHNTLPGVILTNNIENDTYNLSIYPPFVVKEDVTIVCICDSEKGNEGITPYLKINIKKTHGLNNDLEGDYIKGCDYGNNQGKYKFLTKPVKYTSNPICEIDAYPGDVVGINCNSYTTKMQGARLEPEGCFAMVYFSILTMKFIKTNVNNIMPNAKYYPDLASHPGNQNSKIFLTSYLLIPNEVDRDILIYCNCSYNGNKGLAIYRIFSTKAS
Test: affinity purification with mass spectrometry; BS3-crosslinked P36^mCherry sporozoite lysate immunoprecipitated with RFP-Trap, S-Trap digest, LC-MS/MS (Q-Exactive HF), spectral counting
Details: partners not purified

B1: Plasmodium yoelii P52 (natural protein)
chain: NVPNPNTTIGHFEICEVNTSSGDAEECVLENEFGKMFLFICDIDYNEMSKNIVLPSECAKKTYIDHVNPNGTSPEVNTYDIFPDLIAANESQFRDKFYFYGTPYSSKDIDFICLCFSETKPDIKHVMKMSFKKMTKKIKGCDFGDNIPTKKDLTNGKALYENSSCHIYAYPGDVIGINCYKKDINNIYNNNLELQPNNCFHNVYYEDDILLSSKNLIPNSRVIPDPSNDVKLSKMHSYMSYIILPDEINENVKISCACKRDEYIGTMFLYVNTSKNILTSPDNNVEEIAPLNDHYISIGDMWDMGLHENPEQIQGIISNHANKKYYEHMKIYKSNKMDSSDDDESNETESSENESNERTHNGNRANKDANNSEKMTGNRRKKNNSINNTNYYSNYEDDNGINISTHDKYYEDQHFGNNGPLRKKRTFWQNMFGTS
notes: P52, Plasmodium yoelii 17X, 6-cys s48/45 family, two s48/45 domains; predicted MW 53 kDa; also called Py P52; source: endogenous, P. yoelii P36^mCherry salivary gland sporozoite lysate
Q: How did the “stoichiometry N” value turn out when B1 was run?
A: ~1
